Assay: yeast display, Sf9 membrane polyspecificity reagent, FACS + sequencing; frameworks hold sequencing errors
How it was run: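 After 36–48 hours of galactose induction, yeast (Saccharomyces cerevisiae BJ5465) displaying a synthetic nanobody library were stained at 4 °C for 1 hour with 10% biotinylated, detergent-solubilized Sf9 membrane reagent. Streptavidin microbeads enriched the stained cells before FACS sorting into low and high (top ~1%) gates on anti-HA and streptavidin fluorescence. Each clone's polyreactivity label reflects its gate of origin.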

Row | Sequence | polyreactivity (PSR sort gate)
1 | QVQLVESGGGLVQAGGSLRLTCAASGSIFSTNAMGWYRQAPGKERELVATITSGGRTYYADSVKGRFTISRDNAKNTVYLQMNSLKPEDTAVYYCARVPPKYRWGRRLVYVHVDYWGQGTQVTVSS | low polyreactivity
2 | QVQLVESGGGLVQAGGSLRLSCAASGSTFVVNDMGWYRQAPGKERELVAAIRSGTSTNYADSVKGRFTISRDNAKNTVYLQMNSLKPEDTAVYYCNAAITQFAWNRYTLIYDYWGQGTQVTVSS | low polyreactivity
3 | QVQLVESGGGLVQAGGSLRLSCAASGSIFTVNAMGWYRQAPGKERELVAAIDGSSGSTNYADSVKGRFTISRDNAKNTVYLQMNSLKPEDTAVYYCAADWSYEYGYWGQGTQVTVSS | low polyreactivity
4 | QVQLVESGGGLVQAGGSLRLSCAASGIIFDRNTMGWYRQAPGKEREYVAAISRNGGSTSYADSVKGRFTISRDNAKNTVYLQMNSLKPEDTAVYDCAADVETFWGWRYEYWGQGTQVTVSS | low polyreactivity
5 | QVQLVESCGGLVQAGGSLRLSCAASGSTFEEYAMGWYRQAPGKERELVASIRWSGGRTYYADSVKGRFTISRDNAKNTVYLQMNRLKPEDTAVYYCNKDYYITLHESEGKGGEMDYWGQGTQVTVSS | low polyreactivity
6 | QVQLLESGGGLVQAGGTLRLSCAASGSTFRYNAMGWYRQAPGKERELVAAITSGGRTNYADSVKGRFTISRDNAKYTFYLQMNSLKPEDTGVYYCAARRYCRNWHNVYWGQGTQVTVSS | high polyreactivity
7 | QVQLVESGGGLVQAGGSLRLSCAASGRTFVGYTMGWYRQAPGKERELVAAIDLSDGSTSYADSVKGRFTISRDNAKNTVYLQMNSLKPEDTAVYYCAKSWANVYAGAHDYWGQGTQVTVSS | low polyreactivity
8 | QVQLVESGGGLVQAGGSLRLSCAASGNTFGWNAMGWSRQAPGKERELVAAIDIGADTNYADSVKGRFTISRDNAKNTVYLQMNSLKPEDTAVYYCAASYRYVRWKWGYNYWGQGTQVTVSS | high polyreactivity
9 | QVQLVESGGGLVQAGGSLRLSCAASGRIFYDNTMGWYRQAPGKERELVATISSAASTNYADSVKGRFTISRDNAKNTVYLQMNSLKPEDTAVYYCAAEWSTYGYQVLPVDYDYWGQGTQVTVSS | low polyreactivity
10 | QVQLVESGGGLVQAGGSLRLSCAASGSTFYPYAMGWYRQAPGKERELVAAITVSGGSTYYADSVKGRFTISRDNAKNTVYLQMNSLKPEDTAVYYCAVDGDPVFYTTYYYSYYYWGQGTQVTVSS | low polyreactivity
11 | QVQLVESGGGLVQAGGSLRLSCAASGYIFYFNAMAWYRQAPGKEMELVAVISDRDDSTYYADSVKGRFTISRDNAKNTVYLHMNSLKPEDTAVYYCAADGDTYYNYYHWGQGTQVTVSS | low polyreactivity
12 | QVQLVESGGGLVQAGGSLRLICAASGSIFTRNAMGWYRQAPGKEREFVAAISSSGVSTYYADSVKGRFTISRDNAKNTVYLQMISLKPEDTAVYYCAARWGTKSGRYDYWGQGTQVTVSS | high polyreactivity
13 | QVQLVESGGGLVQAGGSLRLSCAASGRIFLRNAMGWYRQAPGKERELVANITSRGGSTYYADSVKGRFTISRDNAKNTVYLQMNSLKPEDTAVYYCAADPRRYRGFGYVYGGFYYWGQGTQVTVSS | low polyreactivity
14 | QVQLVESGGGLVQAGGSLRLSCAASGSTIIDYDMGWYRQAPGKERELVAGISWSGGRTYYADSVKGRFTISRDNAKNTVYLQMNSLKPEDTEVYYCNKVGRGARTSDYWGQGTQVTVSS | high polyreactivity
15 | QVQLVESGGGLVQAGGSLRLSCAASGRIFDGYAMGWYRQAPGKERELVATITGDGGSTYYADSVKGRFTISRDNAKNTVYLQMNSLKPEDTAVYYCAARLTRRLSWYLYNNDYWGQGTQVTVSS | high polyreactivity
16 | QVQLVESGGGLVQAGGSLRLSCAASGIIFYYYAMGWYRQAPGKERELVAAIRSGGSTNYADSVKGRFTISRDNAKNTVYLQMNSLKPEDTAVYYCATRHDYLRAHYGYGSWGQGTQVTVSS | low polyreactivity
17 | QVQLVESGGGLGQAGGSLRLSCAASGFTFRYYAMGWNRQAPGKERELVAAISASGGSTYYADSVKGRFTISRDNAKNTVYLQMNSLKPEDTAVYYCARYYAKMDYWGQGTQVTVSS | high polyreactivity
18 | QVQLVESGGGLVQAGGSLRLSCAASGSIIRGNAMGWYRQAPGKERELVAAISGSGGSTYYADSVKGRFTISRDNAKNTVYLQMNSLKPEDTAVYYCAARYVTSIYAYYYWGQGTQVTVSS | high polyreactivity
19 | QVQLVESGGGLVQAGGSLRLSCAASGFIFDYYMGWYRQAPGKERELVARISYTGGSTYYADSVKGRFTISRDNAKNTVYLQMNSLNPEDTAVYYCATRGAEAERFASYDFDYWGQGTQVTVSS | low polyreactivity
20 | QVQLVESGGCLVQAGGSLRLSCASSGRTFLVYAMGWYRQAPGKERELVAAITSGGSTYYADSVKGRFTISRDNAKNTVYLQMNSLKPEDTAVYYCAAKIRGYPRRRYDYWGQGTQVTVSS | high polyreactivity

Row | Sequence | polyreactivity (PSR sort gate)
21 | QVQLVESGGGLVQAGGSLRLSCAAYGRIFTSYVMGWYRQAPGKERELVAGINSGRRTNYADSVKGRFTISRDNAKNTVYLQMNSLKPEDTAVYYCAKAGYWYKAHYYWGQGTQVTVSS | high polyreactivity
22 | QVQLVESGGGLVQAGGSLRLSCAASGRIWVNAMGCYRQAPWKESELVAAISTSSASTYYADSVKGRFTISRDNAKNTVYLEMNSLKPEDTAVYYCAARWARQLGSGRRGDYWGQGTQVTVSS | high polyreactivity
23 | QVQLVESGGGLVQAGGSLRLSCAASGITFQLYAMGWYRQAPGKERELVAAIDASGGITNYADSVKGRFTISRDNAKNTVYLQMNSLKPEDTAVYYCASFFKLRYRYQFWRYGFGYWGQGTQVTVSS | high polyreactivity
24 | QVQLVESGGGLVQAGGSLRLSCAASGFIFGYYAMGWYRHAPGKERELVAAISYSGGSTYYADSVKGRFTISRDNAKNTVYLQMYSLKPEDTAVYYCAKYGQSNYDWGQGTQVTLSS | high polyreactivity
25 | QVQLVESGGGLVQAGGSLRISCAASGFTLRVNAMGWYRQAPGKERELVAAISDSGGDTYYSNSVKGRFTISRDNAKNTVYLQMNSLKPEDTAVYYCAADDGSENDYWGQGTQVTVSS | low polyreactivity
26 | QVQLVESGGGLVQAGGSLRLSCDASGNIFGLNAMGWYRQAPGKERELVSAISSGGSTNYADSVKGRFTISRDNAKNTVYLQMNSLKPEDTAVYYCAVQGSRYSYCYGYRFRTMDYWGQVTQVTVSS | high polyreactivity
27 | QVQLVESGGGLVQAGGSLRLSCAASGSIFGSYVMGGYRQAPGKERELVATITNGGSTYYADSVKGRFTISRDNAKNTVYLQMNSLKPEDTAVYYCAADGRGDLYVWPGIGGDYWGQGTQVTVSS | low polyreactivity
28 | QVQLVESGGGLVQAGGSLRISCAASGRTFWRNAMGWYRQAPAKERELVAAISRGGSTNYADSVKGRFTISRDNAKNTVYLQMNSLKPEDTAVYYCAARYYYRYNYWGQGTQVTVSS | high polyreactivity
29 | QVQLVESGGGLVQAGGSLRLSSAASGFIFDYSAMGWYRQAPGKERELVAAITRDGGGTYYADSVKGRFTISRDNANNTVYLQMNRLKPEDTAVYYCAARRAVRLYYWGQGTQVTVSA | high polyreactivity
30 | QVQLVESGGGLDQAGGSLRLSCAASGNIFPAYAMGWYRQAPGKERELVAAISKSGGRTYYADSVKGRFTISRDNAKKTVYLVMNSLKPEDSAVYFCAARDRRYQWTSWYDYWGQGTQVTVSS | high polyreactivity
31 | QVQLVESGGGLVQAGGSLRLSSAASGSIFTYYAMGWYRQAPGKERELLASISRHGGSTYYADSVKGRFTISRDNAKNTVYLQMNSLKPEDTAVYYCNARGWHTKVVSPRYYWGQGTQVTVSS | high polyreactivity
32 | QVQLVDSGGGLVQEGGSLRLSCAASGNIFQTYDMGWYRQAHGKEREFVATITSSCARTYYADSVKGRFTISRDNAKNTVYVQMNCLKPEDTAVDYCNRVWSYANGYWGHGTQVTVSS | high polyreactivity
33 | QVQLVESGGGLVQAGGSLRLSCAASGSTIYGYAMGWYRQAPGKERELVAAISWSGGRTYYADSVKGRFTISRDNAKNTVYLQMNSLNPVDTAVYYCNTLRRLTGRYGWSSKYYYWGQGTQVTVSS | high polyreactivity
34 | QVQLVESGGGLVQAGGSLRLSCAASGRTFEYNAMGWYRQAPGKEREFVAAITYSGGGTYYADSVKGRFTISRDNAKNTVYLQMNSLKPEDTAVYYCARERTRVHKHYYWGQGTQVTVSS | low polyreactivity
35 | QVQLVESGGGLFQAGGRLLLSCAASGRIFTYNTRGWYRQAPGKEREFVAAISSSSVSTYYADSVKGRITISRDNAKYTVYLQMNCLKPEDTAVYYCAAKRVGYHIGYVYPYGYWGQGTQVTVSS | high polyreactivity
36 | QVQLVESGGGLVQAGGSLRLICAASGSTIYSYAMGWYRQAPGKEREMVAANDWSGTSTYYADSVKGRFTISRDNAKNTVYLQMNSLKPVDTAVYYCNARKRRSYQGGYYYSLRNEYWGQGTQVTVSS | high polyreactivity
37 | QVQLVESGGGLVQAGGSLRLSCAASGRTIFRYAMGWYTQAPGKERDLVAAITWSGGTTYYADSVKGRFTISRDNAKNTVYLQMNSLKPEDTAVYYCNARGLWYRRVVTYGYWGQGTQVTVSS | high polyreactivity
38 | QLQHVESGGGLVQAGGSLRLSCDASGYTFAWYAMGWYIQAPGKESELVAAISVSGGSTYYADSVKGRFTISRDNAKNTVYIQMNSLKPEDTAVYYCAARRYLGYSASYDYWGQGTQVTVSS | high polyreactivity
39 | QVQLVESGGGLVQAGGSLRLSCAASGNIFVSNVMGWYRQAPGKERELVAAISSGGRTYYADSVKGRFTISRDNAKNTVYLQMNSLKPEDTAVYYCAASYKSKYLGGGEYWGQGTQVTVSS | high polyreactivity
40 | QVQLVESGGGLVQAGGSLRLSSAASGSTFQLYAMRLYRQAPGKETELVAAISGIGDSTYYADSVKGGFTISRDNAKNTVYLQMNSLKPEDTAVYYCAREFSDGLSGKFDYWGQGTQVTGSS | low polyreactivity
